{
  "source": "patent US20250042991A1",
  "about": "(University of Texas, published 2025)",
  "key": {"[1]": {"biological_target": "T1, human leptin (human, UniProt P41159 22-167)", "T1 construct": "Bought recombinant protein coated on ELISA plates; also called Leptin protein; LEPTIN antigen", "T1 sequence (P41159 22-167 limits assumed)": "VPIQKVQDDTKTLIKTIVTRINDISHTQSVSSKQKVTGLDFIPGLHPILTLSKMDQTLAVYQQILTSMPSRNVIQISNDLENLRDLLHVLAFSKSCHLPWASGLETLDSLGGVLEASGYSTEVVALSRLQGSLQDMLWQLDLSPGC", "assay": "ELISA titration on coated leptin, 4 parameter fit", "method": "ELISA titration was used to determine the binding affinity of a panel of monoclonal antibodies to LEPTIN antigen. Binding constants (KD and/or EC 50) of a panel of monoclonal antibodies were estimated using the 4 parameter curve fitting with Prism GraphPad program. For Biacore analysis, all experiments were performed at 25° C. at a flow rate of 45 μl/min. An anti-human IgG Fc antibody (from ThermoFisher, at 50 μg/ml each in acetate buffer, pH 5.0) was immobilized onto a carboxymethyl dextran sensorchip (CM5) using amine coupling procedures based on instruction from the manufacturer. Purified rabbit/human chimeric antibody to be tested was diluted at a concentration of 5 μg/ml in 0.5% P20, HBS-EP buffer and injected on FC2 to reach 500 to 1000 RU. FC1 was used as the reference cell. Specific signals correspond to the difference of signals obtained on FC2 versus FC1. The analyte (recombinant human LEPTIN, apparent molecular weight 16 kDa on SDS-PAGE gel) was injected during 90 sec at series of concentration dilutions (100, 50, 25, 12.5, 6.25, and 3.13, 1.56 nM) in 0.5% P20, HBS-EP buffer. These concentrations were prepared from stock solution in 0.5% P20, HBS-EP. The dissociation phase of the analyte was monitored over a 30 minutes period. Running buffer was also injected under the same conditions as a double reference. After each running cycle, both flow cells were regenerated by injecting 20 to 45 μl of Glycine-HCl buffer pH 1.5. Binding KD on LEPTIN was calculated by koff/kₒₙ kinetic rate for each LEPTIN monoclonal antibodies (Table 3)."}, "[2]": {"biological_target": "T1, human leptin", "assay": "ELISA, human leptin coated on plate, 1:20 diluted culture supernatant", "method": "Binding of LEPTIN by monoclonal antibodies was first screened by ELISA using supernatants collected from the B cell cultures. Human or mouse LEPTIN protein (Sino Biologicals) was coated on a 96-well high binding plate over night at 4° C. in PBS. B cell culture supernatants (5 μl medium and 95 μl of PBS) were added at for binding to LEPTIN antigen coated on the plate. Bound antibody was detected using a secondary antibody against rabbit IgG conjugated with HRP and TMB substrate."}},
  "data": [
    {"binder": "hLept-1 (antibody, V domains shown, From a human scFv phage library, expressed as full human IgG in HEK293 cells) VH: QVQLQQLGPGLVKPSETLSLTCNVSGGSVSRGSHYWTWIRQPPGKGLEWIGYIHTDGSTNFNPSLKSRVTMSLDRSRNQFSLTLSSVTATDTAVYYCAREPGGALNFWGQGTLVTVSS VL: not shown", "values": [
      {"measurement": "EC50", "setting": "[1]", "value": "1 to 500", "unit": "nM"},
      {"measurement": "absorbance at 450 nM", "setting": "[2]", "value": 0.071, "unit": "absorbance at 450 nM"}
    ]},
    {"binder": "hLept-3 (antibody, V domains shown, Expressed as full human IgG in HEK293 cells; also called hLetp-3) VH: QVQLVQSGAEVKKPGSSVKVSCKASGGTFSSYAISWVRQAPGQGLEWMGGIIPIFGTANYAQKFQGRVTITADESTSTAYMELSSLRSEDTAVYYCARSQVPSSYYYGMDVWGQGTMVTVSS VL: QSVLTQPPSVSGAPGQRVTISCTGGNSNIGAGYHVHWYQQLPGAAPKLLIYGDTNRPSGVPDRFSGSQSGTSASLAITGLQADDEADYYCQSYDRSRGGWFFGGGTQLTVL", "values": [
      {"measurement": "EC50", "setting": "[1]", "value": "1 to 500", "unit": "nM"},
      {"measurement": "absorbance at 450 nM", "setting": "[2]", "value": 0.19, "unit": "absorbance at 450 nM"}
    ]},
    {"binder": "hLept-5 (antibody, V domains shown, Expressed as full human IgG in HEK293 cells) VH: QVKLVEWSLSVVQPGRSLRLSCAASGFTFSSYAMHWVRQAPGKGLEWVAVISYDGSNKYYADSVKGRFTISRDNSKNTLYLQMNSLRAEDTAVYYCARGREYYYYMDVWGKGTTVSVSS VL: QSVLTQPPSVSVAPGKTARITCGGYNIARKSVHWYQQKPGQAPVLVMYNDNDRPSGIPERFSGSNSGNTATLTISRVEAGDEADYYCQVWDNSDYVFGTGTKVTVL", "values": [
      {"measurement": "EC50", "setting": "[1]", "value": "1 to 500", "unit": "nM"},
      {"measurement": "absorbance at 450 nM", "setting": "[2]", "value": 0.739, "unit": "absorbance at 450 nM"}
    ]},
    {"binder": "hLept-6 (antibody, V domains shown, Expressed as full human IgG in HEK293 cells) VH: QVQLMQSGAEVKKPGASVKVSCKASGYTFTSYYMHWVRQAPGQGLEWMGIINPSGGSTSYAQKFQGRVTMTRDTSTSTVYMELSSLRSEDTAVYYCARGFGYGGKALDYWGQGTTVTVSS VL: DIQMTQSPPTLSASVGDRVTITCRASQNINSRLAWYQQKPGRAPKLLIYKASTLESGVPSRFSGSGSGTEFTLTISSLQPDDFATYYCQQFDKYSITFGGGTKMEIK", "values": [
      {"measurement": "EC50", "setting": "[1]", "value": "1 to 500", "unit": "nM"},
      {"measurement": "absorbance at 450 nM", "setting": "[2]", "value": 0.663, "unit": "absorbance at 450 nM"}
    ]},
    {"binder": "hLept-2 (antibody, V domains shown, Expressed as full human IgG in HEK293 cells) VH: not shown VL: DIQLTQSPSSLSASVGDRVTITCRAGQSVSRYLNWFQQKPGKAPKLLIYTSSNLQSGVPSRFSASGSGTDFTLTISSLQPEDFATYYCQQTYSTPWTFGQGTKLEIK", "values": [
      {"measurement": "EC50", "setting": "[1]", "value": "1 to 500", "unit": "nM"},
      {"measurement": "absorbance at 450 nM", "setting": "[2]", "value": 2.57, "unit": "absorbance at 450 nM"}
    ]}
  ]
}
